# According to patent publication US20230083243A1 (VEGA THERAPEUTICS, published 2023):
# Substitutions are numbered along the chain they refer to.
# T1: human Protein S (human, UniProt P07225 42-676)
# T1 construct: also called ProS; ProS1
# T1 sequence: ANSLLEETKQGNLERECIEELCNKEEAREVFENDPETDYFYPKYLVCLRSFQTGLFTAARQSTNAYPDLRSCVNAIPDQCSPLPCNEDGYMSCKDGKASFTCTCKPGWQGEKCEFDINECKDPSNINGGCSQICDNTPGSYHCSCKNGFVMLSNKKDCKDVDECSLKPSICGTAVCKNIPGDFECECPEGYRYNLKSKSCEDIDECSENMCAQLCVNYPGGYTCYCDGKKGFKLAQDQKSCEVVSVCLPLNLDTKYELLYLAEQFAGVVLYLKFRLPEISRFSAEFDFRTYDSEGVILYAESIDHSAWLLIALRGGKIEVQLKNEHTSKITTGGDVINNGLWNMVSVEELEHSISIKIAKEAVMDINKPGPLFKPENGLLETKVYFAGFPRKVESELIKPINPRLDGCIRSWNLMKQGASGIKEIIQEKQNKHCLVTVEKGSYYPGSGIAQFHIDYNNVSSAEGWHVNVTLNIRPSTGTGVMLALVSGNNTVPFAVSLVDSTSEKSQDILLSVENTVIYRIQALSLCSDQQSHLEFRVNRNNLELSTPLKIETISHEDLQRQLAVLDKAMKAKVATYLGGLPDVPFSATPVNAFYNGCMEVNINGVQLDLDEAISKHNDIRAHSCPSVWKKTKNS
# T2: recombinant heavy chain Protein S (human, UniProt P07225 42-296)
# T2 construct: Fragment of Protein S spanning amino acids 42-296, expressed and purified from HEK293 cells; also called Protein S heavy chain; heavy chain of Protein S
# T2 sequence: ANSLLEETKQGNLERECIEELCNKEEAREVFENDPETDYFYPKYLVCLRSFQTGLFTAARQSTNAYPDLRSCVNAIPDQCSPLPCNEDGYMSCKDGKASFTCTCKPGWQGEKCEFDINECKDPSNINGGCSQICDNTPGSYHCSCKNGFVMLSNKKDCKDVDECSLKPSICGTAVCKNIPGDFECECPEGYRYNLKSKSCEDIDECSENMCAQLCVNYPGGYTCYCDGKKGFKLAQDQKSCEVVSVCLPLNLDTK
# T3: Protein S-C4BP complex (human, UniProt P04003 49-597; P20851 18-252)
# T3 construct: C4BP preparation from Complement Technologies that contains Protein S precomplexed to human C4BP; also called ProS-C4BP Complex; C4BP-Protein S complex
# T3 sequence 1: T1 sequence
# T3 sequence 2: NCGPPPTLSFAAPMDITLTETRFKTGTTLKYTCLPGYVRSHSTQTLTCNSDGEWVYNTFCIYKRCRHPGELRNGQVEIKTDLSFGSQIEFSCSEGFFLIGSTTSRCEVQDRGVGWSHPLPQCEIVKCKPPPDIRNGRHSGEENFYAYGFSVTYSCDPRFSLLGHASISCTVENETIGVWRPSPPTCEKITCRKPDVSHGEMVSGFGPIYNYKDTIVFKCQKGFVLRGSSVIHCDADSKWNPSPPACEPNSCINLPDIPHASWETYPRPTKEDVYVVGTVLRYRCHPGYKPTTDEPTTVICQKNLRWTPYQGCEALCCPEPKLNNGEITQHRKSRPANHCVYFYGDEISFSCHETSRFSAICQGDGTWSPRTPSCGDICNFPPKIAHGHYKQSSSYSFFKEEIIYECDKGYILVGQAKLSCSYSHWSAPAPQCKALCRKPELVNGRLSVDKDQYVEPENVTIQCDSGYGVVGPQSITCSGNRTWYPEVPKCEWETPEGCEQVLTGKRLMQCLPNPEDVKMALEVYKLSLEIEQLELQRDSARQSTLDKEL
# T3 sequence 3: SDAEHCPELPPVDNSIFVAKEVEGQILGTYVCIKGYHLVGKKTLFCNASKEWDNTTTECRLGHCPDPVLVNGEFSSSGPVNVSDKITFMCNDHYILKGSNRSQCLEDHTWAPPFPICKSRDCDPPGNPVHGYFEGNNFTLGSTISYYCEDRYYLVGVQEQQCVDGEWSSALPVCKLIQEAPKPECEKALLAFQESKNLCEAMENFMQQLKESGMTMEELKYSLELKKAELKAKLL
# B1: Antibody 38 (antibody, V domains shown)
# VH: EVQLVESGGGLVKPGGSLRLSCAASGISFSNAWMSWVRQAPGKGLEWVGRIKANPDGGTTDYAAPVKGRFTISRDDSKNTLYLQMNSLKTEDTAVYYCTTELDILLWFTSFDYWGQGTLVTVSS
# VL: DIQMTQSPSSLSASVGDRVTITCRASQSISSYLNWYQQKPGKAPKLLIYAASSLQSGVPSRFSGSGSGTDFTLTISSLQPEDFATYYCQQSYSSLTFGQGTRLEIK
# notes: Human variable region with rat Fc
# B2: Antibody 35 (antibody, V domains shown)
# VH: QLQLQESGPGLVKPSETLSLTCTVSGGSITNSNYYWGWIRQPPGKGLEWIGSVYYSGTTYYNPSLKSRVTISVDPSKNQFSLKLSSVTAADTAVYYCVRESESYYYYGSDVWGQGTTVTVSS
# VL: DIQMTQSPSSLSASVGDRVTITCRASQGINNYLAWFQQKPGKAPKSLIYAASSLQSGVPSKFSGSGSGTDFTLTISSLQPEDFATYYCQQYNSYPRTFGQGTKVEIK
# notes: as for B1
# B3: Antibody 36 (antibody, V domains shown)
# VH: EVQLVESGGGLVKPGGSLRLSCAASGFTFSSYNMNWVRQAPGRGLDWVSSISSSSSYIYYADSVKGRFTISRDNAKNSLYLQMNTLRAEDTAVYYCARDEEWELLTGFDYWGQGTLVTVSS
# VL: B2 VL with S53N, S60L, R96I, K103R, V104L
# notes: as for B1
# B4: Antibody 42 (antibody, V domains shown)
# VH: QVQLVQSGSEVKKPGASVKVSCKASGYTFTNYYIHWVRQAPGQGLEWMGIITPSGGTTSYAQKFQGRVTMTRDTSTNTVYMGLSSLRSEDTAMYYCARAGVQLDRRGWFDPWGQGTLVTVSS
# VL: SYELTQPPSVSVSPGQTASITCSGDKLGDKYVFWYQQKPGQSPVLVIYQDSKRPSGIPERFSGSNSGNTATLTISGTQTMDEADYYCQAWDSSTVGFGGGTKLAVL
# notes: as for B1
# B5: Antibody 40 (antibody, V domains shown)
# VH: EVQLVESGGGLVQPGGSLRLSCAASGFTFSSYSMNWVRQAPGKGLEWVAYISSSTRTIFYADSVKGRFTISRDNAKNSLYLQMNSLRDEDTAFYYCARERSAFDYWGQGTLVTVSS
# VL: SYVLTQPPSVSVAPGQTARITCGGDNIGGKSVHWYQQKPGQAPVMVVYDDSDRPSGIPERFAGSNSGNTATLAISRVEAGDEADYYCQVWEITSDHPAFGGGTRLTVL
# notes: as for B1
# B6: Antibody 34 (antibody, V domains shown)
# VH: QVQLQQSGTELVRPGTSVKMSCKAAGYTFTNHWIGWVKQRPGHGLEWIGDIYPGGGYTNYNEKFKGKASLTADTSSTTAYMQLSSLTSEDSAIYYCSRFGDQNWAWFAYWGQGTLVTVSA
# VL: DIQMNQSPSSLSASLGDTITITCRASQNIHMWLSWYQQKPGNIPKLLIFKTSNLHTGVPSRFSGSGSGTDFTLTISSLQPEDIATYYCLQGQSYPFTFGGGTKLEIK
# B7: Antibody 37 (antibody, V domains shown)
# VH: B1 VH
# VL: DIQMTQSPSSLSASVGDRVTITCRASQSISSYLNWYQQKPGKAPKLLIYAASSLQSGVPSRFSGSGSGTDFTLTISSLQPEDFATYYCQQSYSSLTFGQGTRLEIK
# notes: Same variable regions as Antibody 38
# B8: Antibody 30 (antibody, V domains shown)
# VH: B3 VH
# VL: B2 VL with S53N, S60L, R96I, K103R, V104L
# notes: Same variable regions as Antibody 36
# B9: Antibody 29 (antibody, V domains shown)
# VH: B2 VH
# VL: B2 VL
# notes: Same variable regions as Antibody 35
# Target: T1, human Protein S
# Assay: ELISA; plate coated with human Protein S; 1 µg/ml antibody; 1 mM calcium chloride
# Protocol: (§1) Calcium dependence of binding was determined using an ELISA based method. Briefly, high binding ELISA plates were coated with human Protein S. Then, buffer containing 1 μg/ml of antibody was applied to the well with either buffer containing 1 mM EDTA or 1 mM calcium chloride.
row,Binding to Protein S in CaCl2 (OD),Binder
1,1.38 OD,B1
2,0.96 OD,B2
3,0.6 OD,B3
4,0.67 OD,B4
5,0.51 OD,B5
6,0.51 OD,B6

# Target: T2, recombinant heavy chain Protein S
# Assay: ELISA on recombinant Protein S heavy chain
# Protocol: (§2) Binding to the heavy chain of Protein S was determined using an ELISA based method. Briefly, high binding ELISA plates were coated with recombinant heavy chain Protein S expressed and purified from HEK293 cells. The “heavy chain” of Protein S represents a fragment of Protein S spanning amino acids 42-296. The coated plate was blocked with 1% casein solution. Then, buffer containing […] of antibody was applied to the well with buffer containing 1 mM calcium chloride.
row,binding result,Binder
1,no binding,B1
2,no binding,B2
3,no binding,B3
4,no binding,B4
5,no binding,B5
6,no binding,B6

# Target: T1, human Protein S
# Assay: BLI Octet; antibody on anti-human Fc probe; Protein S 7.81-500 nM; 4 mM CaCl2
# Protocol: (§3) Binding characteristics of the Protein S antibodies were also further characterized using Octet. Using the Octet System (Sartorius), the binding of each antibody to both human and cynomolgus monkey (“cyno” in Table 10) Protein S was determined. The human Fc antibodies were immobilized onto anti-human Fc capture probes by placing the probes into 10 μg/ml antibody solution in 10 mg/ml bovine serum albumin, 20 mM Tris pH 7.0, 150 mM NaCl, and 4 mM calcium chloride. […] Next, the probes were placed into buffer and the dissociation rates were measured.
Kd,koff,kon,Binder
0.382 nM,8.32e-05 s⁻¹,218000 M⁻¹ s⁻¹,B7
11.5 nM,0.000279 s⁻¹,24200 M⁻¹ s⁻¹,B8
21.1 nM,0.00173 s⁻¹,81900 M⁻¹ s⁻¹,B9

# Target: T4, cynomolgus monkey Protein S (cynomolgus monkey)
# T4 construct: also called cyno Protein S
# Assay: as above
# Protocol: as §3
Kd,koff,kon,Binder
0.672 nM,0.000119 s⁻¹,177000 M⁻¹ s⁻¹,B7
20.9 nM,0.00073 s⁻¹,35000 M⁻¹ s⁻¹,B8
20 nM,0.00177 s⁻¹,88200 M⁻¹ s⁻¹,B9

# Target: T1, human Protein S
# Assay: ELISA; plate coated with human Protein S; 1 µg/ml antibody; 1 mM EDTA
# Protocol: as §1
row,Binding to Protein S in EDTA (OD),Binder
1,0.09 OD,B1
2,0.11 OD,B2
3,0.03 OD,B3
4,0.53 OD,B4
5,0.11 OD,B5
6,0.06 OD,B6

# Target: T1, human Protein S
# Assay: cell-based or functional assay
IC50 APC,IC50 TFPI,Binder
84 nM,–,B1
371 nM,–,B2
15.3 nM,6.05 nM,B3
215 nM,–,B4
11.9 nM,–,B5
95.8 nM,–,B6

# Target: T3, Protein S-C4BP complex
# Assay: BLI Octet; antibody on anti-human Fc probe
# Protocol: The Octet assay was used to determine the capability of the Protein S antibodies provided herein to bind to Protein S either alone, or when complexed to C4BP.
# Using the Octet System (Sartorius), the binding of each antibody to both Protein S and Protein S in complex with C4BP was determined. It had previously been determined that the C4BP preparation from Complement Technologies contains Protein S precomplexed to human C4BP. Therefore, this preparation represented the Protein S-C4BP complex and plasma purified Protein S from Haematologic Technologies was used as the source of free Protein S. The human Fc antibodies were immobilized onto anti-human Fc capture probes by placing the probes into 10 μg/ml antibody solution in 10 mg/ml bovine serum albumin, 20 mM Tris pH 7.0, 150 mM NaCl, and 4 mM calcium chloride. Then the bound antibodies were placed into solutions containing either 75 μg/ml Protein S or 100 μg/ml C4BP (C4BP-Protein S complex).
row,Binder,binding result
1,B7,no binding (tested: 100 µg/ml C4BP (C4BP-Protein S complex))
2,B8,no binding (tested: 100 µg/ml C4BP (C4BP-Protein S complex))
3,B9,no binding (tested: 100 µg/ml C4BP (C4BP-Protein S complex))

# Target: T2, recombinant heavy chain Protein S
# Assay: ELISA; plate coated with recombinant Protein S heavy chain; 1 mM CaCl2
# Protocol: as §2
row,Binding to heavy chain (OD),Binder
1,0.1 OD,B1
2,0.08 OD,B2
3,0.08 OD,B3
4,0.11 OD,B4
5,0.11 OD,B5
6,0.16 OD,B6
